Patent US20230313180A1
Read-outs that look alike come from different tables or passages of the source.

Assays:
[1] = target: SARS-CoV-2-RBD tagged with a C-terminal Fc tag (ACRO Biosystems) (SARS-CoV-2) (UniProt P0DTC2); experiment: BLI, immobilized SARS-CoV-2 RBD
[2] = target: SARS-CoV-2-RBD tagged with a C-terminal Fc tag (ACRO Biosystems) (SARS-CoV-2) (UniProt P0DTC2)
[3] = target: T1, SARS-CoV-2-RBD tagged with a C-terminal Fc tag (ACRO Biosystems) (SARS-CoV-2), P0DTC2
[4] = target: T1, SARS-CoV-2-RBD tagged with a C-terminal …; experiment: BLI, immobilized SARS-CoV-2 RBD; reference Nb1-Nb1 genetic dimer
[5] = target: T1, SARS-CoV-2-RBD tagged with a C-terminal …; experiment: BLI, immobilized SARS-CoV-2 RBD; reference (Nb1N)2
[6] = target: T1, SARS-CoV-2-RBD tagged with a C-terminal …; remark: listed apart in the source

Molecule	Kd [3]	koff [3]	kon [3]	fold tighter binding than Nb1-Nb1 [4]	other results
Nb1-Nb1, genetically linked "tail to head" dimer of Nb1 (VHH72)					Kd [1]: 88 nM; Kd [2]: 89 nM; koff [2]: 0.00314 s⁻¹; kon [2]: 35400 M⁻¹ s⁻¹
(Nb142)2, homodimer of Nb1 (VHH72) with Tet3.0 at framework position Gly42, joined by the 2-headed sTCO (PEG)12 linker (VHH, modifications not checked) VHH: QVQLQESGGGLVQAGGSLRLSCAASGRTFSEYAMGWFRQAPGKEREFVATISWSGGSTYYTDSVKGRFTISRDNAKNTVYLQMNSLKPDDTAVYYCAAAGLGTVVSEWDYDYYLDYWGQGTQVTVSS	27.5 nM	0.00201 s⁻¹	73100 M⁻¹ s⁻¹	3 fold	
(Nb1C)2, homodimer of Nb1 (VHH72) with Tet3.0 at the C-terminus, joined by the 2-headed sTCO (PEG)12 linker (VHH, modifications not checked) VHH: QVQLQESGGGLVQAGGSLRLSCAASGRTFSEYAMGWFRQAPGKEREFVATISWSGGSTYYTDSVKGRFTISRDNAKNTVYLQMNSLKPDDTAVYYCAAAGLGTVVSEWDYDYYLDYWGQGTQVTVSS	132 nM	0.0064 s⁻¹	48100 M⁻¹ s⁻¹		fold weaker binding than Nb1-Nb1 [4]: 1.5 fold
(Nb1N)3, homotrimer of Nb1 (VHH72) with Tet3.0 at the N-terminal position, joined by the 3-armed Tri-sTCO PEG linker (VHH, modifications not checked) VHH: SGTGSQVQLQESGGGLVQAGGSLRLSCAASGRTFSEYAMGWFRQAPGKEREFVATISWSGGSTYYTDSVKGRFTISRDNAKNTVYLQMNSLKPDDTAVYYCAAAGLGTVVSEWDYDYYLDYWGQGTQVTVSS					fold tighter KD than the genetic dimer Nb1-Nb1 [4]: 44 fold; fold larger kon than (Nb1N)2 [5]: 3 fold; fold smaller koff than (Nb1N)2 [5]: 2 fold; fold tighter KD than (Nb1N)2 [5]: 6 fold; Kd [6]: 2.31 nM; koff [6]: 0.000566 s⁻¹; kon [6]: 246000 M⁻¹ s⁻¹
(Nb1N)2, homodimer of Nb1 (VHH72) with Tet3.0 at the N-terminal position, joined by the 2-headed sTCO (PEG)12 linker (VHH, modifications not checked) VHH: SGTGSQVQLQESGGGLVQAGGSLRLSCAASGRTFSEYAMGWFRQAPGKEREFVATISWSGGSTYYTDSVKGRFTISRDNAKNTVYLQMNSLKPDDTAVYYCAAAGLGTVVSEWDYDYYLDYWGQGTQVTVSS	13.8 nM	0.00119 s⁻¹	85800 M⁻¹ s⁻¹	7 fold	
(Nb113)2, homodimer of Nb1 (VHH72) with Tet3.0 at framework position Gln13, joined by the 2-headed sTCO (PEG)12 linker (VHH, modifications not checked) VHH: QVQLQESGGGLVQAGGSLRLSCAASGRTFSEYAMGWFRQAPGKEREFVATISWSGGSTYYTDSVKGRFTISRDNAKNTVYLQMNSLKPDDTAVYYCAAAGLGTVVSEWDYDYYLDYWGQGTQVTVSS	46 nM	0.00156 s⁻¹	33800 M⁻¹ s⁻¹		
